Results taken from the supplement of paper PMC10567573.
± gives the standard deviation.

Test: protein stability index of a GFP-peptide fusion (GPS, HEK-293T) (PSI 1-6); higher = more stable
[1] = treatment: DMSO, c terminus: a fixed tail appended
[2] = treatment: MLN4924 1 uM, 8 h, c terminus: a fixed tail appended
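Note: 24-mer peptide tiles fused after GFP, lentivirally expressed, FACS-sorted into six equal bins by GFP/DsRed ratio, decoded by Illumina sequencing, PSI is the read-weighted mean bin number.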

| Sequence | protein stability index [1] | protein stability index [2] | protein stability index (treatment: DMSO, c terminus: native) | protein stability index (treatment: MLN4924 1 uM, 8 h, c terminus: native) |
| --- | --- | --- | --- | --- |
| QETRGELQCRSPPRLHGAKAILDA [TBC1D10A] | 4.55 ± 0.27 | 4.62 ± 0.12 | – | – |
| QETVLVEERRVVHASGDASYSAGD [EPB41L3] | 5.28 ± 0.2 | 5.38 ± 0.24 | – | – |
| QEYQLPYQRVLPLPIFTPAKMGAT [TCAP] | 3.01 ± 0.35 | 3.09 ± 0.18 | – | – |
| QFRVVRCWKMLSPGFDSSVYSDLC [ADAMTSL2] | 2.5 ± 1 | 2.32 ± 0.45 | – | – |
| QGEYSRKLEERFMTLAANHELMLR [CCDC89] | 3.15 ± 0.18 | 3.18 ± 0.25 | – | – |
| QHRKINPKNREYDRFYVINYLVRL [ZNF277] | 3.16 ± 1.1 | 2.29 ± 0.64 | – | – |
| QKPRGLEGGVLRGSKLEKGHLRGP [ZSWIM9] | 3.98 ± 0.63 | 3.82 ± 0.54 | – | – |
| QLELVILQSEPHRAGVQWKFAGSF [KCNK9] | 2.7 ± 0.54 | 2.59 ± 0.44 | – | – |
| QLIDNILEESDIDRDGTINLSEFQ [CIB1] | 3.69 ± 0.35 | 3.89 ± 0.26 | – | – |
| QLKACTNFDDILNVCDDYDVTCNE [KCNG1] | 4.42 ± 0.16 | 4.63 ± 0.085 | – | – |
| QLYMEQFTKANFWYQPSFHGVDLS [CARM1] | 2.42 ± 0.71 | 2.48 ± 0.31 | – | – |
| QNDNAPEILYPALPTDGSTGVELA [PCDHGA10] | 4.84 ± 0.39 | 5.2 ± 0.18 | – | – |
| QPASELLQDVRVNQSRCEMKTFVS [TRIM15] | 2.98 ± 0.48 | 3.25 ± 0.41 | – | – |
| QQHSDKTSLQGLTGTPLVAGSPIR [ISL2] | 4.2 ± 0.21 | 4.39 ± 0.13 | – | – |
| QQRPHPRSHSREPRAERKCPRIAP [ELOA2] | 4.49 ± 0.46 | 4.53 ± 0.071 | – | – |
| QRQAIKGAFYRRAQRLRPQDEPRQ [KCNG1] | 3.87 ± 0.24 | 4.16 ± 0.22 | – | – |
| QRVLFSGSSDHSVIMWDIGGRKGT [WDFY2] | 2.8 ± 0.43 | 2.94 ± 0.14 | – | – |
| QSEHTMVLRCQLSAEEVRFPVSVT [C2CD2L] | 2.64 ± 0.33 | 2.49 ± 0.42 | – | – |
| QSEPSEQDGVLDLSTKKSPCAGST [LCOR] | 5.39 ± 0.22 | 5.46 ± 0.29 | – | – |
| QSLNDRLASYLDRVRSLETENRRL [KRT18] | 3.65 ± 0.044 | 3.67 ± 0.23 | – | – |
| QSLVSILRTTVHHAFPVVTENRGN [CLCN6] | 2.69 ± 0.57 | 2.46 ± 0.059 | – | – |
| QTVTVEEAAGGESALAPSVFKQAK [MAP2] | 5.21 ± 0.32 | 5.38 ± 0.45 | – | – |
| QVALLRLTWSELFVLNAAQCSMPL [NR2F2] | 2.97 ± 0.44 | 3 ± 0.41 | – | – |

| Sequence | protein stability index [1] | protein stability index [2] | protein stability index (treatment: DMSO, c terminus: native) | protein stability index (treatment: MLN4924 1 uM, 8 h, c terminus: native) |
| --- | --- | --- | --- | --- |
| QVHAWQLYYSKKLLDSWFTSTQEK [JAGN1] | 2.23 ± 0.29 | 2.29 ± 0.29 | – | – |
| QVNGHPDPFDEIILFSLPPALDWD [PTPN9] | 2.27 ± 0.23 | 2.31 ± 0.4 | – | – |
| QWTVGKLNCPFCGARLGGFNFVST [RNF180] | 2.46 ± 0.39 | 2.65 ± 0.54 | – | – |
| QYIISDLASARIIEQDAVVPSEWL [GMCL1] | 2.76 ± 0.24 | 2.76 ± 0.25 | – | – |
| QYQLLRCNVDLLKIIQLGLTFMNE [CNOT7] | 2.73 ± 1.8 | 2.86 ± 0.42 | – | – |
| RADLVFIIDSSRSVNTHDYAKVKE [MATN2] | 2.51 ± 0.32 | 2.72 ± 0.34 | – | – |
| RALSDTTEELTVIKSSLKDEYQYS [SLC2A12] | 4.54 ± 0.22 | 4.68 ± 0.08 | – | – |
| RASRLQAPVLVAAPHSTFFDPIVL [LPCAT4] | 2.6 ± 0.31 | 2.71 ± 0.2 | – | – |
| RCRQSLEDSESLRIKEVEHMTRHL [LRRC45] | 3.42 ± 0.14 | 3.46 ± 0.17 | – | – |
| RDNGHSNRDEHSSRGYRNHRSSRE [RBMY1A1] | 5.1 ± 0.074 | 5.24 ± 0.088 | – | – |
| REIMEKFGKQPVSLPARRLKLRGR [CPXM2] | 3.64 ± 0.16 | 3.65 ± 0.088 | – | – |
| RELLDRAMREAIQSYPSQDKPLPP [SOAT2] | 3.94 ± 0.12 | 3.95 ± 0.083 | – | – |
| REQKEKSPPDQPAVPHPPPSTPIK [ADD1] | 5.39 ± 0.12 | 5.53 ± 0.18 | – | – |
| RFCLPHLVALAEQHAVQELTKAAT [RHOBTB1] | 2.12 ± 0.18 | 2.08 ± 0.15 | – | – |
| RGIDIIKWMERYLRDKTVMIIVAI [TRAF3IP2] | 2.25 ± 0.31 | 2.33 ± 0.42 | – | – |
| RGLVGVGEASYSTIAPTLIADLFV [SPNS1] | 2.29 ± 0.62 | 2.13 ± 0.26 | – | – |
| RGPDNALLEATGGAAGRSHHLDED [KCTD10] | 5.54 ± 0.26 | 5.42 ± 0.25 | – | – |
| RGRFTTYEIRVKTNLPIFKLKEST [SNX3] | 2.54 ± 0.98 | 2.47 ± 0.57 | – | – |
| RGTHAVVGVATADAPLHSVGYTTL [SPSB1] | 2.73 ± 0.26 | 2.88 ± 0.14 | – | – |
| RGWLLTSGTDKVIKLWDMTPVVS [WDFY2] | – | – | 2.01 ± 0.2 | 2.26 ± 0.24 |
| RHRIPEPEAAVLFRQMATALAHCH [TRIB3] | 2.48 ± 0.084 | 2.29 ± 0.19 | – | – |
| RKLSFSHSDHSSEMSLPEVQKDKY [SPATS1] | 4.85 ± 0.15 | 4.93 ± 0.2 | – | – |
| RKPPVFDENEDVNFDHFEILRAIG [STK32A] | 2.76 ± 0.36 | 2.86 ± 0.31 | – | – |

| Sequence | protein stability index [1] | protein stability index [2] | protein stability index (treatment: DMSO, c terminus: native) | protein stability index (treatment: MLN4924 1 uM, 8 h, c terminus: native) |
| --- | --- | --- | --- | --- |
| RKQRRRERWLQKQGKYSGVGLLDH [RNF180] | 3.43 ± 0.26 | 3.94 ± 0.33 | – | – |
| RKSSKLIMELTGGGQESSGLNLGK [MYOZ1] | 3.72 ± 0.082 | 3.98 ± 0.26 | – | – |
| RLLGSVQQDLERSLQDASRGDPAH [PBXIP1] | 4.7 ± 0.2 | 4.56 ± 0.46 | – | – |
| RLPRQNSDGGQKNKPREHIIDCGD [WSB1] | 4.54 ± 0.39 | 5.07 ± 0.095 | – | – |
| RLQQELEQQRCLLLARLRELEQQI [TRIM15] | 3.68 ± 0.2 | 3.69 ± 0.39 | – | – |
| RLQVVKLLAKMFGAKDSELASQNK [PDS5B] | 2.11 ± 0.34 | 2.7 ± 0.075 | – | – |
| RMETPKSREITTLANNQCMATESV [EHMT1] | 4.56 ± 0.22 | 4.79 ± 0.08 | – | – |
| RMLMKRLDVTVQSFGWSDRAKVKT [FAM98B] | 2.48 ± 0.34 | 2.34 ± 0.34 | – | – |
| RPIIASISSGVVSIWAQNQVENWS [RBBP5] | 2.22 ± 0.34 | 2.26 ± 0.42 | – | – |
| RPSEAQSVILRRYFLELTQSFIIP [DENND6A] | 2.91 ± 0.44 | 2.67 ± 0.45 | – | – |
| RQIQEEEDEKQRLQNEVRQLTEKL [SSNA1] | 4.98 ± 0.19 | 5.04 ± 0.21 | – | – |
| RQLALPATEQAATQESTFQELCEG [NOP53] | 5.12 ± 0.16 | 5.22 ± 0.21 | – | – |
| RREVERKQKGSEENLDEAREQKEK [ADD1] | 5.5 ± 0.29 | 4.91 ± 0.87 | – | – |
| RRTYLGGAAGRSQEPEVPCAAVLP [RSPH3] | 4.37 ± 0.092 | 4.37 ± 0.18 | – | – |
| RSLNVASGSGKSGGYGFGRGRASG [KRT71] | 4.35 ± 0.38 | 4.49 ± 0.27 | – | – |
| RSQQQEPLLCPSYQSYFKTIEELQ [KRT33B] | 3.21 ± 0.37 | 3.43 ± 0.18 | – | – |
| RSWFPSAPGSASSSKVSGVLKKLA [YJU2B] | 2.61 ± 0.27 | 2.5 ± 0.38 | – | – |
| RTDLEMQIEGLNEELAYLKKNHEE [KRT15] | 4.85 ± 0.3 | 4.77 ± 0.22 | – | – |
| RTHGDMHSLVRSRHRIPEPEAAVL [TRIB3] | 3.8 ± 0.11 | 3.91 ± 0.086 | – | – |
| RTHTGEKPYKCTLCGENFSHRSNL [ZNF263] | 2.43 ± 0.27 | 2.79 ± 0.53 | – | – |
| RTIVEEVQDGKVISSREQVHQTTR [KRT17] | 4.69 ± 0.25 | 5.01 ± 0.38 | – | – |
| RTLASGRLLSYRGERVAARGYWGD [DNAAF3] | 2.96 ± 0.17 | 3.08 ± 0.19 | – | – |
| RVLQNLLTIEERYLPQCSYFKCVQ [CCND2] | 3.08 ± 0.22 | 2.69 ± 0.57 | – | – |

| Sequence | protein stability index [1] | protein stability index [2] | protein stability index (treatment: DMSO, c terminus: native) | protein stability index (treatment: MLN4924 1 uM, 8 h, c terminus: native) |
| --- | --- | --- | --- | --- |
| RVQQHIESKLLGSNSSRMYFTQTL [MLH1] | 2.37 ± 0.23 | 2.29 ± 0.38 | – | – |
| RVRGLGLPKLYLPTGPRRGRDELG [CDKN1A] | 3.33 ± 0.58 | 3.43 ± 0.057 | – | – |
| RYMLTRDYLTVKVWDLNMEARPIE [PPP2R2C] | 2.51 ± 0.3 | 2.37 ± 0.24 | – | – |
| SACTVALHIFQLNEDGPSSENLEE [TRIP13] | 3.23 ± 0.2 | 3.33 ± 0.19 | – | – |
| SALGRQRLQDISSLPLPQSLKNYL [SPSB4] | 2.85 ± 0.11 | 3.27 ± 0.6 | – | – |
| SASEEEDTKPKPTKRKRKGSSAVG [INTS3] | 5.23 ± 0.23 | 5.38 ± 0.16 | – | – |
| SAWSNIQEAPLQDDSCLNNDIPHS [FAN1] | 4.98 ± 0.2 | 5.07 ± 0.067 | – | – |
| SCKENCTCSSCLLRAPTISDLLND [EDARADD] | 4.85 ± 0.41 | 4.83 ± 0.33 | – | – |
| SDGILRGNGTGYLPGRGRVLSSWS [RHOBTB2] | 3.42 ± 0.2 | 3.26 ± 0.3 | – | – |
| SDVVDWLYHNVEGFTDRREARKYA [DVL3] | 3.23 ± 0.31 | 3.53 ± 0.33 | – | – |
| SEDVNWGYEKRNLARVPKLDLKRQ [CHGB] | 4.34 ± 0.3 | 4.27 ± 0.25 | – | – |
| SEEYQQAQHKFLVAVESMEPNNIV [TCF25] | 4.26 ± 0.22 | 4.29 ± 0.15 | – | – |
| SEFQAALSRKVAELVHFLLLKYRA [MAGEA3] | 2.57 ± 0.56 | 2.48 ± 0.51 | – | – |
| SEGFESDSSHDSARASEGSDSGSD [SMG5] | 5.51 ± 0.3 | 5.7 ± 0.1 | – | – |
| SELEDLTEPEQRELKTKLTKLEAE [TPD52L3] | 5.31 ± 0.45 | 5.6 ± 0.15 | – | – |
| SFRKFRYGYNNVVTIPAGATHILV [ADAMTS4] | 2.64 ± 0.28 | 2.99 ± 0.51 | – | – |
| SGAAASLNVDAAVQQWLQKGTPAS [CHIT1] | 4.12 ± 0.33 | 4.01 ± 0.35 | – | – |
| SGIPEVKCYLNGVKVPGIVRLRTL [CLCN6] | 2.4 ± 0.53 | 1.91 ± 0.35 | – | – |
| SGKESPPVSDTPDEGDEPMPIPED [IKZF1] | 5.866 ± 0.015 | 5.71 ± 0.38 | – | – |
| SGPMQAALQAAAHASVDIKDVLDF [SMG5] | 4.42 ± 0.17 | 4.18 ± 0.1 | – | – |
